Substitutions are numbered along the chain they refer to.

The target of test [1] is T1, rhesus OX40 expressed on HEK293A cells (rhesus, UniProt P43489 29-277 (human entry)).
T1 construct: also called HEK293A/rhOX40; HEK293A/rhesusOX40 cells
T1 chain: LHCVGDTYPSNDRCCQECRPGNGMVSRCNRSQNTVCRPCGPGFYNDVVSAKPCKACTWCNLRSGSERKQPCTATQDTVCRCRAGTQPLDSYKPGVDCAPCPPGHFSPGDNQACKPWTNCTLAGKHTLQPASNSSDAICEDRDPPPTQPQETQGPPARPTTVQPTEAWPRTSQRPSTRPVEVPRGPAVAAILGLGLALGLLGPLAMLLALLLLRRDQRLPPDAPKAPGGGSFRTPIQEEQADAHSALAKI
Kind of test: FACS on HEK293A/rhesus OX40 cells, MFI (panel without title; monkey OX40 by the legend). The procedure:
Briefly, 10^5 HEK293A cells were seeded into each well of the 96-well plates and serially diluted anti-OX40 antibodies were added to the plates. After incubated at 4° C. for 1 hour, plates were washed 3 times with PBST. Then, an APC coupled Goat Anti-Mouse IgG (BioLegen, US, Cat#: 405308) diluted 500× was added to the plates. After incubation at 4° C. for 1 hour, the plates were washed with PBS for 3 times and then cell fluorescence was monitored using a FACS machine (BD).
Example 15 Humanized Anti-OX40 Antibodies Bound to Human or Rhesus OX40 Expressed on HEK293A Cells The humanized anti-OX40 antibodies were also tested for their ability of binding to HEK293A/huOX40 cells or HEK293A/rhOX40 cells, following the FACS analysis protocol as described in Example 5.

Test [2] deals with T2, recombinant rhesus OX40-his (Sino Biological, Cat#:90846-C08H) (rhesus monkey, UniProt P43489 29-214 (human entry)).
T2 construct: bought protein; also called monkey OX40-his; rhOX40-his; not shown: His tag
T2 chain: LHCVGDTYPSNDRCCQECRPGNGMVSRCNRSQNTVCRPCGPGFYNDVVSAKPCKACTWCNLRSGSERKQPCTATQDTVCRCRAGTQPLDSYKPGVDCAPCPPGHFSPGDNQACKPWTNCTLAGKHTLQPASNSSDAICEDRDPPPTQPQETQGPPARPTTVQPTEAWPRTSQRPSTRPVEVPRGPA
Kind of test: ELISA on coated rhesus OX40-His, OD450.

Test [3] concerns the target T3, murine OX40-His (Crown, Cat#: E3350-B1707) (mouse, UniProt P47741 20-211).
T3 construct: bought protein; also called mouse OX40-his; muOX40-his; not shown: His tag
T3 sequence: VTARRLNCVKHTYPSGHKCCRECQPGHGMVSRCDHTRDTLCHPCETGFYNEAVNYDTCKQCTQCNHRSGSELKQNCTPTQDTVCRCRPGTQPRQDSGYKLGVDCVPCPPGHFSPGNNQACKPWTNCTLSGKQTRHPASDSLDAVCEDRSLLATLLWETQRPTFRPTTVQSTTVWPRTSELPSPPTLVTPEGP
Kind of test: ELISA. (In an ELISA, binding on a coated surface is turned into a signal by an enzyme label.)

In test [4] the target is T4, recombinant human OX40-his (Sino Biological, Cat#:10481-H03H) (human, UniProt P43489 29-214).
T4 construct: bought protein; also called hOX40-his; not shown: His tag
T4 sequence: T2 chain with Q16H, N29S, A50S, A55P, P70L, P145A, T159I, R173G, R183G, P185R
Kind of test: SPR Biacore 8K, OX40-His on chip, antibody injected. The procedure:
SPR assays were used to determine the binding affinity of the chimetic or humanized anti-OX40 antibodies to human OX40 with the BIAcore™ 8K instrument (GE Life Sciences). Briefly, 100-200 response units (RU) of human OX40-His protein (Sino Biological, CN, Cat#:10481-H03H, Lot no.: MA08MA3003) were coupled to CM5 biosensor chips (Cat#: BR-1005-30, GE Life Sciences), followed by blocking of un-reacted groups with 1M ethanolamine. Serially diluted antibodies at concentrations ranging from 0.3 µM to 10 µM were injected into the SPR running buffer (HBS-EP buffer, pH7.4, GE Life Sciences; US; Cat#:BR-1006-69) at 30 µL/minute. The binding capacitity was calculated with the RUs of blank controls subtracted. The association rate (k_a) and dissociation rate (k_d) were calculated using the one-to-one Langmuir binding model (BIA Evaluation Software, GE Life Sciences). The equilibrium dissociation constant K_D was calculated as the k_d/k_a ratio.
A general note: Surface plasmon resonance follows binding to a sensor surface in real time, without labels.

The target of test [5] is T4, recombinant human OX40-his (Sino …). The test is described as follows: ELISA on coated human OX40-His, OD450.

B1: 71H8-VH3VL2 (antibody, human IgG1, kappa, V domains shown)
VH: QVQLVQSGAEVKKPGASVKVSCKVSGYTFTSYWITWVRQRPGQGLEWIGDIYPGSGSTNQNEKFKSRVTLTVDTSTDTAYMELSSLRSEDTAVYYCATLRPYYFVYWGQGTLVTVSS
VL: DIQMTQSPSSLSASVGDRVTITCRASQDISNYLNWYQQKPGKTPKLLIYYTSRLLSGVPSRFSGSGSGTDYTLTISSLQPEDFATYYCQQGNTLPLTFGQGTRLEIKR
notes: humanized; also called 71H8-H3L2
Regarding B1, the binding result in test [1] is reported as “binds”. The “EC50 (read off the curve)” value in test [2] is approximately 3 ng/mL. Further, the binding result in test [3] is “no binding”. In addition, in test [4], the Kd was 37.2 nM, the off-rate (koff) was found to be 0.00871 s⁻¹ and the on-rate (kon) was 234000 M⁻¹ s⁻¹. For the same molecule, the “EC50 (read off the curve)” value in test [5] is approximately 3 ng/mL.

What is called EC50 (read off the curve) is the midpoint of the concentration-response curve. Broadly, the Kd is the free concentration of one partner at which half of the binding sites on the other are occupied at equilibrium, for simple one-to-one binding. As a reminder, the koff is the first-order rate constant of dissociation. A word on the kon: it is a measure of how fast the partners come together.

The values are drawn from US10442866 (BEIJING MABWORKS BIOTECH, dated 2019).
